Experimental data reported in patent US20170313754A1 (PROTAGONIST THERAPEUTICS, published 2017).
Bridge positions count the residues as written; N and C are the ends. Square brackets hold non-standard residues; d marks the D form. * marks the point of attachment. NMeW = CN[C@@H](Cc1c[nH]c2ccccc12)C(=O)O; Isovaleryl = CC(C)CC(=O)*; Sar = CNCC(=O)O

B1: Isovaleric acid-DTHFPCIIF-[Sarc]-PRSKG-[N-MeTrp]-VC-NH2 (peptide)
peptide: DTHFPCIIFXPRSKGWVC
modifications: N-terminal isovaleric acid; Sarc at position 10; N-MeTrp at position 16; C-terminal amide
B2: Hy-DTHFPCIIFGPRSKGWVACY-NH2 (peptide)
peptide: H-DTHFPCIIFGPRSKGWVACY-NH2
modifications: not fully specified (bridges); printed as Hy-DTHFPCIIFGPRSKGWVACY-NH2; cysteine pairing not given here
B3: Hy-DTHFPCIIFGPRSRGHVCK-NH2 (peptide)
peptide: H-DTHFPCIIFGPRSRGHVCK-NH2
modifications: not fully specified (bridges); printed as Hy-DTHFPCIIFGPRSRGHVCK-NH2; cysteine pairing not given here
B4: Isovaleric acid-DTHFPCIIF-[Sarc]-PHSKG-[N-MeTrp]-VC-NH2 (peptide)
peptide: DTHFPCIIFXPHSKGWVC
modifications: N-terminal isovaleric acid; Sarc at position 10; N-MeTrp at position 16; C-terminal amide
B5: Hy-DTHFPCIIFGGPRSKGWNCK-NH2 (peptide)
peptide: H-DTHFPCIIFGGPRSKGWNCK-NH2
modifications: not fully specified (bridges); printed as Hy-DTHFPCIIFGGPRSKGWNCK-NH2; cysteine pairing not given here
B6: Hy-DTHFPCIIFGGPRSRGWVCK-NH2 (peptide)
peptide: H-DTHFPCIIFGGPRSRGWVCK-NH2
modifications: not fully specified (bridges); printed as Hy-DTHFPCIIFGGPRSRGWVCK-NH2; cysteine pairing not given here
B7: Hy-DTHFPCIIFGPRSKGWNCK-NH2 (peptide)
peptide: H-DTHFPCIIFGPRSKGWNCK-NH2
modifications: not fully specified (bridges); printed as Hy-DTHFPCIIFGPRSKGWNCK-NH2; cysteine pairing not given here
B8: Hy-DTHFPCIIFGPRSKGWVAC-NH2 (peptide)
peptide: H-DTHFPCIIFGPRSKGWVAC-NH2
modifications: not fully specified (bridges); printed as Hy-DTHFPCIIFGPRSKGWVAC-NH2; cysteine pairing not given here
B9: Hy-DTHFPCIIFGPRSKGWAVCYW-NH2 (peptide)
peptide: H-DTHFPCIIFGPRSKGWAVCYW-NH2
modifications: not fully specified (bridges); printed as Hy-DTHFPCIIFGPRSKGWAVCYW-NH2; cysteine pairing not given here

The binders below were run against T1, human ferroportin (SLC40A1) fused in frame with GFP, stably expressed in HEK293 cells (human, UniProt Q9NP59 1-571) (assay: cell-based or functional assay).
T1 sequence (looked up): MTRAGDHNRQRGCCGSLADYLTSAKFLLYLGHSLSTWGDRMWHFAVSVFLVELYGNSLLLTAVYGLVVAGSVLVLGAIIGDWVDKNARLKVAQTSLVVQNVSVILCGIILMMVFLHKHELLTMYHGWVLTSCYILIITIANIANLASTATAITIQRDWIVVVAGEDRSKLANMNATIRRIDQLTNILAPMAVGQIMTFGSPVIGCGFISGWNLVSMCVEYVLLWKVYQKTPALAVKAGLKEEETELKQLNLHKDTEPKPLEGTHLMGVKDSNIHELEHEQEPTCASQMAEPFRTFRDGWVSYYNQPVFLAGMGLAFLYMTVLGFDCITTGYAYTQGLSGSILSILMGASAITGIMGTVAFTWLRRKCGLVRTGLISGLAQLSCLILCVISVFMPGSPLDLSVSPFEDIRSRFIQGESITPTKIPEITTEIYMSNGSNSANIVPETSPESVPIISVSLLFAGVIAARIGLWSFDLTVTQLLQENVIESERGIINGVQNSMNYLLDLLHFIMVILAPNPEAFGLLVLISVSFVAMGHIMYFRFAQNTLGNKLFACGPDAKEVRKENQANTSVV

Potency EC50 (nM), ferroportin-GFP internalization/degradation	Potency: percent at the stated concentration, ferroportin-GFP internalization/degradation	Binder
10 nM	–	Isovaleryl-DTHFPCIIFEPRSKFWVCK-NH2 (disulfide 6-18 (inferred)) [Isovaleric acid-DTHFPCIIFEPRSKFWVCK-NH2]
28 nM	–	Isovaleryl-DTHFPCIKFEPHSK[Sar]CK-NH2 (not fully specified (bridges); cysteine pairing not given here) [Isovaleric acid-DTHFPCIKFEPHSK-[Sarc]-CK-NH2]
9 nM	–	Isovaleryl-DTHFPCIKFEPRSKLWVCK-NH2 (disulfide 6-18 (inferred)) [Isovaleric acid-DTHFPCIKFEPRSKLWVCK-NH2]
–	8 % at 1 uM	H-DTHFPCIEY-NH2 [Hy-DTHFPCIEY-NH2]
> 1000 nM	–	H-ADHFPCIIF-NH2 [Hy-ADHFPCIIF-NH2]
10 nM	–	B1
> 10000 nM	–	B2
> 1000 nM	–	H-ATHFPCIIF-NH2 [Hy-ATHFPCIIF-NH2]
46 nM	–	Isovaleryl-DTHFPCIKFEPRSKEWVCK-OH (not fully specified (bridges); cysteine pairing not given here) [Isovaleric acid-DTHFPCIKFEPRSKEWVCK-OH]
–	64 % at 10 uM	H-DPHFPCIIF-NH2 [Hy-DPHFPCIIF-NH2]
–	59 % at 1 uM	H-DTHFPCIIFAA-NH2 [Hy-DTHFPCIIFAA-NH2]
15 nM	–	Isovaleryl-DTHFPCIIFEPRSKHWVCK-NH2 (disulfide 6-18 (inferred)) [Isovaleric acid-DTHFPCIIFEPRSKHWVCK-NH2]
> 10000 nM	–	H-DTHCPIAIF-NH2 [Hy-DTHCPIAIF-NH2]
> 1000 nM	–	B3
20 nM	–	Isovaleryl-DTHFPCIKFEPRSKEWVCK-NH2 (disulfide 6-18 (inferred)) [Isovaleric acid-DTHFPCIKFEPRSKEWVCK-NH2]
46 nM	–	Isovaleryl-DTHFPCIKFKPHSKEWVCE-NH2 (disulfide 6-18 (inferred)) [Isovaleric acid-DTHFPCIKFKPHSKEWVCE-NH2]
7 nM	–	Isovaleryl-DTHFPCIIFEPRSKLWVCK-NH2 (disulfide 6-18 (inferred)) [Isovaleric acid-DTHFPCIIFEPRSKLWVCK-NH2]
> 1000 nM	–	H-DTHFPCIDFGPRSKGWVCK-NH2 (disulfide 6-18 (inferred)) [Hy-DTHFPCIDFGPRSKGWVCK-NH2]
–	50 % at 10 uM	H-DTHFVCIIF-NH2 [Hy-DTHFVCIIF-NH2]
9 nM	–	B4
404 nM	–	B5

Potency EC50 (nM), ferroportin-GFP internalization/degradation	Potency: percent at the stated concentration, ferroportin-GFP internalization/degradation	Binder
149 nM	–	H-DTHFPICIFGPHRSKGWVCM-NH2 (disulfide 7-19 (inferred)) [Hy-DTHFPICIFGPHRSKGWVCM-NH2]
520 nM	–	B6
> 10000 nM	–	H-DTHFPIAICI-NH2 [Hy-DTHFPIAICI-NH2]
> 10000 nM	–	H-DTHFPIICI-NH2 [Hy-DTHFPIICI-NH2]
–	45 % at 10 uM	H-DTHKPCIIF-NH2 [Hy-DTHKPCIIF-NH2]
–	75 % at 10 uM	H-DTHFPCIIY-NH2 [Hy-DTHFPCIIY-NH2]
> 10000 nM	–	H-DTHFP[dC]IIFGPRSKGWVA[dC]-NH2 (disulfide 6-19 (inferred)) [Hy-DTHFP-[(D)Cys]-IIFGPRSKGWVA-[(D)Cys]-NH2]
> 1000 nM	–	B7
19 nM	–	Isovaleryl-DTHFPCIIFEPRSKEWVCK-NH2 (disulfide 6-18 (inferred)) [Isovaleric acid-DTHFPCIIFEPRSKEWVCK-NH2]
281 nM	–	B8
–	85 % at 1 uM	H-DTHFPCILY-NH2 [Hy-DTHFPCILY-NH2]
–	23 % at 1 uM	H-DTHFPCIIT-NH2 [Hy-DTHFPCIIT-NH2]
32 nM	–	Isovaleryl-DTHFPCIIFGPRSKG[NMeW]VC-NH2 (disulfide 6-18 (inferred)) [Isovaleric acid-DTHFPCIIFGPRSKG-[N-MeTrp]-VC-NH2]
> 10000 nM	–	H-DTHICIAIF-NH2 [Hy-DTHICIAIF-NH2]
> 1000 nM	–	H-DTHFPCIIFAC-NH2 (disulfide 6-11 (inferred)) [Hy-DTHFPCIIFAC-NH2]
> 1000 nM	–	H-DTHFPCINFGPRSKGWVCK-NH2 (disulfide 6-18 (inferred)) [Hy-DTHFPCINFGPRSKGWVCK-NH2]
> 1000 nM	–	Isovaleryl-DTHFECIIFGPRSKGWVCK-NH2 (not fully specified (bridges); cysteine pairing not given here) [Isovaleric acid-DTHFECIIFGPRSKGWVCK-NH2]
6400 nM	–	H-DTHFPCIIFKC-NH2 (disulfide 6-11 (inferred)) [Hy-DTHFPCIIFKC-NH2]
679 nM	–	H-DTHFPCIIFGGPRSKGWDCK-NH2 (disulfide 6-19 (inferred)) [Hy-DTHFPCIIFGGPRSKGWDCK-NH2]
57 nM	–	Isovaleryl-DTHFPCIFEPRSKGTCK-NH2 (disulfide 6-16 (inferred)) [Isovaleric acid-DTHFPCIFEPRSKGTCK-NH2]
197 nM	–	B9
